In PMC3615900:

Experiments:
Conditions in all cases: reference: wild type; sites S248
V5-14-3-3β = V5-14-3-3β (UniProt P31946); experiment: co-IP with αV5, blot αFlag
14-3-3β [1] = molecular target: 14-3-3β (UniProt Q9CQV8); experiment: co-IP with αFlag, blot α14-3-3β
14-3-3β [2] = molecular target: 14-3-3β (UniProt P31946); experiment: Flag-Rubicon complex purification, immunoblot

binding against the reference (V5-14-3-3β): lost | binding against the reference (14-3-3β [1]): lost | binding against the reference (14-3-3β [2]): lost
Substance: Rubicon (from UniProt Q92622) S248A
